B1: Transcriptional repressor p66-beta, residues 415 to 455; numbered along this chain, Q8WXI9 (parent)
chain: VEPFVCAQCRTDFTPHWKQEKNGKILCEQCMTSNQKKALKA

Variants of: B1
Experiment: abundance fitness (aPCA) (normalised: wild type 0, dead -1); higher = more abundant; growth selection in yeast, the domain comes from the species named
Conditions: Homo sapiens

Abundance fitness: each site, then its substitutions
V1: A -0.29 | K 0.195 | I -0.288 | D -0.002 | F -0.17 | R -0.054
L39: A -0.083 | T -0.199 | Q -0.291 | H -0.078 | E -0.108 | N 0.54 | G 0.157 | V 0.078 | C -0.1 | R -0.016 | F -0.425
T11: V 0.587 | M 0.436 | S 0.058 | L 0.156 | K 0.427 | E 0.312
E2: V -0.227 | W -0.651 | A -0.352 | H 0.197 | T 0.056 | M -0.019 | C -0.112 | L -0.469 | Q -0.297 | N 0.866 | R -0.55 | F -0.1
W17: L 0.051 | H 0.009 | A -0.009 | Y 0.557 | T 0.564 | C 0.149 | E 0.196
K18: F -0.312 | V 0.011 | L -0.217 | C 0.01 | Y -0.447 | H 0.155 | G 0.098 | I -0.295 | W -0.195 | R -0.072 | Q -0.105
D12: P -0.118 | F -0.149 | C 0.141 | E 0.032 | A 0.064 | H 0.081 | Y -0.025
C30: V -0.664 | L -0.786 | E -1.11 | K -0.635 | A -0.488 | D -0.315 | R -0.84
Q29: V -0.389 | C -0.491 | G -0.15 | L -0.042 | T -0.253 | D -0.083 | P -0.141 | R 0.02 | E -0.097
C6: D -0.718 | K -0.368 | V -1.08 | F -0.944 | S -0.911 | A -0.771 | T 0.403 | M -1.12
M31: S -0.042 | K -0.043 | P -0.97 | G 0.01 | E -0.033 | A -0.038 | D -0.106 | W -0.041 | R -0.178 | V -0.083
Q35: M -0.157 | R -0.197 | P -0.223 | A -0.117 | I -0.378
H16: A -0.077 | Y -0.004 | K -0.28 | N -0.319 | D 0.015 | I -0.073 | F -0.005 | S -0.084 | E -0.042
S33: Y 0.28 | P -0.011 | V -0.104 | C -0.113 | L -0.176 | M 0.048 | H 0.121 | F -0.919 | A -0.04
V5: I -0.126 | E -0.226 | R -0.027 | G -0.302 | D -0.568 | M -0.03 | T 0.041
E28: F -0.356 | D 0.08 | S -0.006 | Q -0.222 | P -0.178 | G -0.066
T14: W -0.521 | A -0.185 | K -0.014 | C -0.145 | M -0.527 | I -0.298 | P 0.137 | H -0.039 | D -0.347
F4: H 0.114 | C 0.659 | T -0.126 | Y -0.14 | A 0.101 | G 0.044 | L 0.036
P15: G -0.048 | E -0.102 | I -0.154 | M -0.111 | C 0.051 | V 0.015 | D 0.212 | F -0.351
C27: L -1.32 | M -1.31 | H 0.039 | R -1.06 | T -1.38 | Y -0.444
Q8: A 0.821 | T 0.864 | G 0.934 | Y 0.428 | N 0.741 | W 0.557
A7: M -0.165
